What is called Ki is a measure of affinity in units of concentration, obtained from inhibition or displacement.

Assay [1] has as its target T1, Protein Interacting with C Kinase-1 (PICK1), purified recombinant (UniProt Q9EP80 1-416).
T1 construct: also called purified PICK1
Kind of assay: fluorescence polarization competition, tracer 5-FAM-TAT-C5. In general terms: Fluorescence polarisation rises when a labelled molecule tumbles more slowly, as on binding a larger partner.

In assay [2] the target is T2, PICK1 (endogenous, mouse spinal cord) (mouse, UniProt Q62083 1-416).
T2 construct: also called PICK1 protein
T2 sequence (Q62083 whole entry): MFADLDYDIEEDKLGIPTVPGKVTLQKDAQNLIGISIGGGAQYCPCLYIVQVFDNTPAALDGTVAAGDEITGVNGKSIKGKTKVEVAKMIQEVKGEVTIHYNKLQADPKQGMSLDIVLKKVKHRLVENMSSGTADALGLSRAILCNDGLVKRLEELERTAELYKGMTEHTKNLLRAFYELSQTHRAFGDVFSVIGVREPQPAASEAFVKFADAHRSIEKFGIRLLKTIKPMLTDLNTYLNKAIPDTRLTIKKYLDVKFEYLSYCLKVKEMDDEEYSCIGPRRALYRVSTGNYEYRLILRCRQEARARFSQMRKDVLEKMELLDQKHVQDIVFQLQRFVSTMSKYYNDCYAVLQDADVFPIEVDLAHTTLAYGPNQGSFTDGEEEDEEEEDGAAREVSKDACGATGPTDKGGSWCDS
Kind of assay: pull-down from mouse spinal cord after intrathecal administration.

Assay [3] deals with T3, GFP-PICK1 A87L (UniProt Q9EP80 1-416).
T3 construct: also called PDZ deficient mutant GFP-PICK1 A87L; not shown: GFP tag
T3 sequence (Q9EP80 whole entry A87L): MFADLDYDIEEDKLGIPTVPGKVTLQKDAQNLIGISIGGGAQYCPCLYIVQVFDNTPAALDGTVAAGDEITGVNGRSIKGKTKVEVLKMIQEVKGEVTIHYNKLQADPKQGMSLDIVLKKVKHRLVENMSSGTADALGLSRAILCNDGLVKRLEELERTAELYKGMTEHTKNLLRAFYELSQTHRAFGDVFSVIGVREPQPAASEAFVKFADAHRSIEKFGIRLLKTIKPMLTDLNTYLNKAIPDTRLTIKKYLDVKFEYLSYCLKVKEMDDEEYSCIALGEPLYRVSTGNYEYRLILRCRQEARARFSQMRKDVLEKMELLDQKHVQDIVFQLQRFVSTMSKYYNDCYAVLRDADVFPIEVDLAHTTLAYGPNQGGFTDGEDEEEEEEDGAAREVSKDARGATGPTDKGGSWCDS
Kind of assay: pull-down from HEK293 cells.

Assay [4] has as its target T1, Protein Interacting with C Kinase-1 …. Kind of assay: fluorescence polarization competition, tracer 5FAM-TAT-(C5).
For assay [5], the target named is T3, GFP-PICK1 A87L. Kind of assay: colocalization in heterologous cells.

Where no end group is shown, it is not given here. The star is where a group is joined. NPEG4 = 4-unit NPEG linker joining two HWLKV peptides through their N-termini, carries the CPP on its nitrogen; Biotin = O=C1N[C@H]2[C@H](CS[C@H]2CCCCC(=O)*)N1

T1 sequence (Q9EP80 whole entry): as the sequence (Q9EP80 whole entry A87L) above, with L87A counted along it

B1: PNT-P4-(C5)2 (peptide)
peptide 1: RQIKIWFQNRRMKWKK
peptide 2: HWLKV
modifications: not fully specified
notes: Branched compound as TAT-P4-(C5)2, with Penetratin as CPP; also called Pent-P4-(C5)2; PNT-peptide
Take B1: the “Fold affinity change (against TAT-P4-(C5)2)” value (“Fold affinity change” below) in assay [1] was 1.7 fold.

B2: N-terminally biotinylated TAT-P4-(C5)2 (peptide)
peptide 1: Biotin-YGRKKRRQRRR
peptide 2: HWLKV
modifications: not fully specified
notes: also called Biotin-TAT-P4-(C5)2
In the case of B2, the binding result in assay [2] was “binds”; in assay [3] it was “no binding”.

B3: MAP-P4-(C5)2 (peptide)
peptide 1: KLALKLALKALKAALKLA
peptide 2: HWLKV
modifications: not fully specified
notes: also called MAP-NPEG4-(HWLKV)2; MAP-peptide
Turning to B3, in assay [1], the “Fold affinity change” value amounted to 0.8 fold and the Ki was found to be 5.1 nM.

B4: TAT11-PEG4-(DATC5)2 (peptide)
peptide 1: YGRKKRRQRRR
peptide 2: NPEG4-HWLKV
modifications: not fully specified (C-terminus)
notes: Branched compound: two HWLKV peptides joined through their N-termini by a 4-unit NPEG linker that carries the CPP; also called TAT-P4-(C5)2
Take B4: in assay [1], the “Fold affinity change” value worked out at 1 fold and the inhibitory constant (Ki) was 4 nM. For the same molecule, in assay [4], the “fold shift in affinity” value stood at 301 fold.

B5: TAMRA-YGRKKRRQRRR-PEG4-(HWLKV)2 (peptide)
peptide 1: YGRKKRRQRRR
peptide 2: HWLKV
modifications: not fully specified; N-terminus linked to the NPEG4 linker that joins the two copies; TAMRA on the N-terminus of the TAT sequence; conjugated to the NPEG4 linker
notes: also called TMR-TAT-P4-(C5)2; TMR-TAT11-P4-(C5)2
On to B5, for which the binding result in assay [5] is listed as “no binding”.

Source of the values: patent publication US20210347821A1 (published 2021).
